# No end group written: not given here. *: point of attachment. 5FAM = O=C1OC2(c3ccc(O)cc3Oc3cc(O)ccc32)c2ccc(C(=O)*)cc21
# Experiments:
# [1] = target: HLA-A*03:01 (heavy chain with β2-microglobulin) (human); assay: fluorescence polarisation; fluorescence anisotropy; dissociation of fluorescein-labeled peptide from 100 nM purified peptide/HLA-A*03:01 complex with 100 μM unlabeled peptide; 37 °C; 20 mM NaH2PO4, 75 mM NaCl, pH 7.4; t1/2 = 0.693/koff of the slowest rate
# [2] = tested on: peptide-pulsed HLA-A*03:01+ target cells; assay: Intracellular TNFα of TCR-transduced T cells with peptide-pulsed HLA-A*03:01+ targets; assay type: cell-based
# [3] = target: HLA-A*03:02 (Homo sapiens, UniProt P04439, E176V/L180Q); assay: Differential scanning fluorimetry, peptide/HLA complex; assay type: binding; settings: DSF, SYPRO Orange, 15 μM protein, HBS-EP pH 7.4, representative melt curve (n=3 technical replicates)
# Protocol: Melting temperatures of WT and Mut PIK3α peptide/HLA-A*03:01 complexes were measured via differential scanning fluorimetry on a StepOnePlus Real-Time PCR System (Applied Biosystems), as previously described[68]. In brief, a 96-well plate was loaded with mixtures of 2 μl of 100× SYPRO Orange Protein Gel Stain (Invitrogen) and 18 μl of target protein at 15 μM in HBS-EP buffer (10 mM HEPES, 150 mM NaCl, 3 mM NaEDTA, 0.005% surfactant P20, pH 7.4). The excitation and emission wavelengths for the measurement were 587 nm and 607 nm, respectively. Temperature was scanned from 20 °C to 95 °C at a rate of 1 °C min^−1. Melting temperatures were determined by fitting the 1st derivative of each melting curve to a bi-Gaussian function in OriginPro.
Molecule,t1/2 of the peptide/HLA complex [1] [h],other results
fluorescein-labeled pMut derivative (P5 Gly substituted with a 5-carboxyfluorescein-modified lysine) (peptide),5.5,–
"IVFMGWTTK [peptide derived from transmembrane protein 87B (TM87B), position 407-415]",–,activation of T cells by peptide (in words) [2]: failed to activate TCR4-transduced T cells
"AHHGGWTTK [pWT, wild-type PI3Kα counterpart peptide]",–,Tm (melting temperature of peptide/HLA complex) [3]: 38.7 oC
AHHGK(5FAM)WTTK (also: 5-carboxyfluorescein-modified Lys at P5 (replacing Gly)) [fluorescein-labeled pWT derivative (P5 Gly substituted with a 5-carboxyfluorescein-modified lysine)],0.078,–

# From paper PMC9117146, “Immunogenicity and therapeutic targeting of a public neoantigen derived from mutated PIK3CA” (Nature Medicine, 2022)
